Reference: US20090246142

Experiments:
[1] = target: T1, MMP-7 substrate G-K(TAMRA)-G-V-P-L-S-L-T-M-G-C-CONH2 with 20 kDa PEG, on receptor (NeutrAvidin) TSACs (Example 3) (not fully specified)
T1 chain: GKGVPLSLTMGC

[2] = target: T2, MMP-7-MMP-2 tandem substrate TAMRA-G-K-G-V-P-L-S-L-T-M-Ahx-G-P-L-G-V-R-G-C-CONH2 with 20 kDa PEG, on ligand (biotin) TSACs (Example 3) (not fully specified)
T2 chain: GKGVPLSLTMGPLGVRGC

[3] = target: T3, MMP-2 substrate G-K(TAMRA)-G-P-L-G-V-R-G-C-CONH2 with 20 kDa PEG, on ligand (biotin) TSACs (Example 3) (not fully specified)
T3 chain: GKGPLGVRGC

B1: catalytic domain of matrix metalloproteinase-7 (MMP-7; Biomol) (protein)
chain: YSLFPNSPKWTSKVVTYRIVSYTRDLPHITVDRLVSKALNMWGKEIPLHFRKVVWGTADIMIGFARGAHGDSYPFDGPGNTLAHAFAPGTGLGGDAHFDEDERWTDGSSLGINFLYAATHELGHSLGMGHSSDPNAVMYPTYGNGDPQNFKLSQDDIKGIQKLYGKRSNSRKK
[1]
  TSAC assembly in DLS: addition of 0.4 µg MMP-7 induces assembly, while 0.4 µg MMP-2 cannot
[2]
  hydrodynamic radius increase in DLS: Hydrodynamic radii increased more than 5-fold in the presence of either enzyme or both enzymes
[3]
  TSAC assembly in DLS: Addition of 0.4 µg MMP-2 actuates TSAC assembly, while 0.4 µg MMP-7 or no enzyme is insufficient
